Experimental data published in patent US20210121527A1, “METHODS OF TREATING MINIMAL RESIDUAL CANCER” (ICAHN SCHOOL OF MEDICINE AT MOUNT SINAI, priority 2018, published 2021).

What was measured:
HEp3-GFP HNSCC tumors = assay: HEp3-GFP HNSCC tumor surgery model in NSG mice, local recurrence and lung DCCs; type: in vivo, mouse
Text: FIGS. 15A-15C show the evaluation of BMP7-F9 treatment in a mouse model of disease. FIG. 15A is a schematic illustration of an in vivo experimental procedure used to evaluate the effect of BMP7-F9 on metastasis initiation. […] Tumors were then removed via surgery. 1-2 days after surgery, the adjuvant treatment with BMP7-F9 was continued for another 3, 4, or 6 weeks. Animals were then euthanized and the DCC burden in lung was scored using fluorescence microscopy. […] At those time points, the percentage of local recurrence and DCC incidence was scored. In FIG. 15C, mice were treated as in FIG. 15A, except that the adjuvant treatment was for 4 weeks. The number of GFP positive cells in dissociated lungs was scored following treatment. […] Note that the median of DCC burden drops one log and that BMP-7 apparently cures from DCCs 3 of 7 animals.
Tumors were then removed via surgery. 1-2 days after surgery, the adjuvant treatment with BMP7-F9 was continued for another 4 weeks. Animals were then euthanized and the DCC burden in lung was scored using fluorescence microscopy. […] NSG mice were treated following the protocol in FIG. 15A for 4 weeks. At those time points, the percentage of local recurrence and DCC incidence was scored. The number of GFP positive cells in dissociated lungs was scored following treatment. […] Note that the median of DCC burden drops one log and that BMP-7 apparently cures from DCCs 3 of 7 animals.

T-HEp3 cells [1] = assay: T-HEp3 tumors on chicken embryo chorioallantoic membranes (CAM); type: in vivo; conditions: 24 hours pre-treatment, then 50 ng/ml daily
Method: FIG. 14B is a schematic illustration of the in vivo experimental procedure used in FIGS. 14C-14D. T-HEp3 cells were pre-treated for 24 hours with BMP7-F9 in vitro and then inoculated on chicken embryo chorioallantoic membranes (“CAM”s) (FIG. 14C), where they were treated daily in vivo with vehicle or BMP7-F9 (50 ng/ml) prior to collection of the tumors and quantification of number of HEp3 HNSCC cells (FIG. 14D) and levels of P-H3 (FIG. 14E). Arrows in FIG. 14E indicate overlapping P-H3 and DAPI fluorescence.
FIG. 14B is a schematic illustration of the in vivo experimental procedure used in FIGS. 14C-14D. T-HEp3 cells were pre-treated for 24 hours with BMP7-F9 in vitro and then inoculated on chicken embryo chorioallantoic membranes (CAMs) (FIG. 14C), where they were treated daily in vivo with vehicle or BMP7-F9 (50 ng/ml) prior to collection of the tumors and quantification of number of HEp3 HNSCC cells/tumor (FIG. 14D) and levels of P-H3 (FIG. 14E).

HEp3 HNSCC cells = assay: ERK/p38 activity ratio, dormancy mRNAs and NR2F1 in HEp3 cells; type: cell-based
Method: The effect on the ERK/p38 activity ratio is observed after 2-6 and 24 hours (second through fourth group of columns). In the first 30 minutes, ERK activity is stimulated by BMP7 (first column set). […] Arrows indicate NR2F1 flourescence. Differences in FIG. 13A and FIG. 13B, p<0.05 as calculated using Student's t test.
BMP7-F9 reduces the ERK/p38 activity ratio and induces various mRNAs in the dormancy signature (FIGS. 13A-13C). […] The effect on the ERK/p38 activity ratio is observed after 2-6 and 24 hours (second through fourth group of columns). In the first 30 minutes ERK activity is stimulated by BMP7 (first column set). […] Differences in FIG. 13A and FIG. 13B, p<0.05 as calculated using Student's t test.

T-HEp3 cells [2] = assay: Cell titer blue proliferation assay; type: cell-based; conditions: 48 hours
[3] = adjuvant treatment only, 3 weeks
[4] = adjuvant treatment only, 6 weeks
[5] = neo-adjuvant and adjuvant treatment, 4 weeks

B1: BMP7-F9: variant of human mature BMP7, homodimer of SEQ ID NO:8 (protein, listed as Homo sapiens)
chain: STGSKQRSQNRSKTPKNQEALRMANVAENSSSDQRQACKKHELYVSFRDLGWQDWIIAPEGYAAGYCEGECAFPLNSYMNATNHALVQTLVHVINPETVPKPCCAPTQLGAISVLYFDDSSNVILKKWRNMVVRACGCH
modifications: homodimer
+DCCs in lungs (animals) (HEp3-GFP HNSCC tumors; [3]): 5 | +local recurrence (animals) (HEp3-GFP HNSCC tumors; [3]): 1 | DCC incidence (%) (HEp3-GFP HNSCC tumors; [3]): 50.0% | Local recurrence incidence (%) (HEp3-GFP HNSCC tumors; [3]): 9.1% | Median number of GFP^+/Vimentin^+ tumor cells/lung (HEp3-GFP HNSCC tumors; [3]): 0.62E+04 | +DCCs in lungs (animals) (HEp3-GFP HNSCC tumors; [4]): 3 | +local recurrence (animals) (HEp3-GFP HNSCC tumors; [4]): 0 | DCC incidence (%) (HEp3-GFP HNSCC tumors; [4]): 42.9% | Local recurrence incidence (%) (HEp3-GFP HNSCC tumors; [4]): 0.0% | Median number of GFP^+/Vimentin^+ tumor cells/lung (HEp3-GFP HNSCC tumors; [4]): 0 | +DCCs in lungs (animals) (HEp3-GFP HNSCC tumors; [5]): 4 | +local recurrence (animals) (HEp3-GFP HNSCC tumors; [5]): 3 | DCC incidence in lungs % (HEp3-GFP HNSCC tumors; [5]): 57.1% | Median number of GFP^+/Vimentin^+ tumor cells/lung (HEp3-GFP HNSCC tumors; [5]): 0.02E+04 | animals apparently cured from DCCs (HEp3-GFP HNSCC tumors; [5]): 3 of 7 | local recurrence % (HEp3-GFP HNSCC tumors; [5]): 42.9% | median of DCC burden in lungs (HEp3-GFP HNSCC tumors; [5]): drops one log | growth of T-HEp3 cells in vivo (CAM) (T-HEp3 cells [1]): induces growth arrest of T-HEp3 cells | DEC2, p53 and p27 mRNAs (HEp3 HNSCC cells; 10 ng/ml, 24 hours): induces DEC2, p53, and p27 mRNAs | nuclear NR2F1 (immunofluorescence) (HEp3 HNSCC cells; 10 ng/ml, 24 hours): induces nuclear accumulation of NR2F1 | ERK/p38 activity ratio (Western blot) (HEp3 HNSCC cells; 2, 5 and 10 ng/ml, 2-6 and 24 hours): reduces the ERK/p38 activity ratio over control | proliferation in vitro (cell titer blue) (T-HEp3 cells [2]): inhibits their proliferation in vitro
